Experimental data taken from publication PMC6028098, “The N-terminal region of photocleavable peptides that bind HLA-DR1 determines the kinetics of fragment release” (PLoS ONE, 2018).

Molecular target: HLA-DR1 (DRA*01:01/DRB1*01:01) extracellular domain (human)
Experiment: fluorescence polarisation

Row | Substance | IC50 [nM]
1 | photoHA photocleavable peptide (PRYVKxNTLRLAT) | 92
2 | HA peptide (unlabeled, non-photocleavable), HA306-318-derived | 40
3 | Ac-photoHA photocleavable peptide (Ac-PRYVKxNTLRLAT) | 134
4 | Ac-photoHAΔ1–2 photocleavable peptide (Ac-YVKxNTLRLAT) | 227
5 | photoHAΔ1–2 photocleavable peptide (YVKxNTLRLAT) | 1040
